Residue numbers refer to the chain shown, from its start.

The target in this assay is T1, His-HERC2 (amino acids 2540–2700) (human, UniProt O95714 2540-2700).
T1 construct: source: E. coli BL21-CodonPlus (DE3)-RIPL, purified (nickel–nitrilotriacetic acid beads, PD-10 desalting)
T1 sequence (looked up): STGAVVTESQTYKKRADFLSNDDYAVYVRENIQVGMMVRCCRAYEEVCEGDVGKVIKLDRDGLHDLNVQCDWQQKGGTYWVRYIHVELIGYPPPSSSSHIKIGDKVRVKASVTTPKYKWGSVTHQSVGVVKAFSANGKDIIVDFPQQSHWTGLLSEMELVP
Nature of the assay: pull-down; GST-tagged proteins (2 μg) and His-HERC2 (amino acids 2540–2700) (2.8 μg) in 20 mM Tris–HCl pH 7.5, 150 mM NaCl, 0.1% Triton X-100, 1 mM DTT; Glutathione Sepharose beads, 1 h at 4 °C; gel stained with CBB. The conditions noted are these: both partners purified.

B1: GST-NCOA4 (amino acids 383–522) C418S (domain or fragment, human, UniProt Q13772 383-522, looked up)
chain: SMVTEDWLVQNHQDPCKVEEVCRANEPCTSFAECVSDENCEKEALYKWLLKKEGKDKNGMPVEPKPEPEKHKDSLNMWLCPRKEVIEQTKAPKAMTPSRIADSFQVIKNSPLSEWLIRPPYKEGSPKEVPGTEDRAGKQK
notes: C418S; Absorption at 330 and 420 nm not attenuated (Fe–S cluster kept); source: E. coli BL21-CodonPlus (DE3)-RIPL, purified (Glutathione Sepharose, PD-10 desalting)
With B1, the binding result is reported as “binds”.

B2: GST-NCOA4 (amino acids 383–522) WT (domain or fragment, human, UniProt Q13772 383-522, looked up)
chain: B1 chain with S36C
notes: Vector pGEX6p-1; Bacteria were grown with Cys and FAC; the UV–visible spectrum resembles that of 2Fe–2S cluster proteins; also called glutathione S-transferase (GST)-fused NCOA4 (amino acids 383–522); source: E. coli BL21-CodonPlus (DE3)-RIPL, purified (Glutathione Sepharose, PD-10 desalting)
In the case of B2, the binding result is “binds”.
